The values below come from paper PMC3883112 (Cell reports, 2013).

This experiment addresses T1, GST-Pol32 (full length Pol32) (yeast (S. cerevisiae), UniProt P47110 1-350).
T1 sequence (looked up): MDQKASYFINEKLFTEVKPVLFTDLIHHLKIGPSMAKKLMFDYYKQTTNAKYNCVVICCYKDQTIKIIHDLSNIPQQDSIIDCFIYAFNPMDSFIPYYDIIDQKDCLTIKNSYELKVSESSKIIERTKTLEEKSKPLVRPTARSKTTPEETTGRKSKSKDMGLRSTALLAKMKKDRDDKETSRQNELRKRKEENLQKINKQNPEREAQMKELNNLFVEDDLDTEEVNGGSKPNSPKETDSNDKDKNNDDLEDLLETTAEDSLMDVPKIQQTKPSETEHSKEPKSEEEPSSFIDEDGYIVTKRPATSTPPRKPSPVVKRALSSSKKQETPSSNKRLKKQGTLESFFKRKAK
Nature of the experiment: pull-down.

B1: Rev7 used in the GST pull-down (natural protein, yeast (S. cerevisiae), UniProt P38927 1-245, looked up)
chain: MNRWVEKWLRVYLKCYINLILFYRNVYPPQSFDYTTYQSFNLPQFVPINRHPALIDYIEELILDVLSKLTHVYRFSICIINKKNDLCIEKYVLDFSELQHVDKDDQIITETEVFDEFRSSLNSLIMHLEKLPKVNDDTITFEAVINAIELELGHKLDRNRRVDSLEEKAEIERDSNWVKCQEDENLPDNNGFQPPKIKLTSLVGSDVGPLIIHQFSEKLISGDDKILNGVYSQYEEGESIFGSLF
For B1, the binding result is recorded as “binds”.
